The test system of the data set is bladder tumor tissue (epidermal growth factor positive superficial transitional cell bladder carcinoma). The data set is described as follows: Radioactive uptake in bladder tumor vs normal bladder tissue after instillation in the bladder of patients (ttn ratio). The conditions noted are these: 200 mL of 0.25 μg/mL in saline instilled in the bladder for 30 minutes, washed out, mean values. As to the method:
Nine patients having epidermal growth factor positive superficial transitional cell bladder carcinoma were studied.
200 mL of the polymers, of the concentration 0.25 μg/mL in saline, were instilled through an urethral catether and kept in the bladder for 30 minutes and were then carefully washed out with approximately 400 mL saline. The patients were then operated on and samples were taken from normal bladder tissue and bladder tumor tissue, respectively. The samples were weighed and counted in gamma counter and the radioactive uptake was calculated as cpm/g tissue. The target to non-target (ttn) ratio was calculated.

Regarding Tc-99m-lysine dextran, the “radioactive uptake, ttn (target to non-target ratio, tumor vs normal bladder tissue, cpm/g)” value is “highest target to non-target ratio”.
